Reference: publication PMC10447908, “Customizably designed multibodies neutralize SARS-CoV-2 in a variant-insensitive manner” (Frontiers in Immunology, 2023)

Molecular target: T1, SARS-CoV-2 Spike receptor binding domain, Wuhan (ancestral) variant (SARS-CoV-2, UniProt P0DTC2, biotinylated in vitro when needed)
T1 construct: also called Wuhan RBD; soluble (monomeric) RBD
Assay: flow cytometry on cells; cell-surface binding inhibition: 36 nM RBD preincubated with 1 to 1088 nM of the molecule for 1 h at 37°C in PBS, 1% BSA, 2 mM EDTA, then 1x10^5 HEK-293T-hACE2 cells for 1 h on ice; RBD on cells revealed with Strep-Tactin-Dye649; blocker and RBD meet in solution
Settings: both partners purified

B1: Binder C (VHH)
VHH: QVQLVESGGGLVQPGGSLRLSCAASGITLDYYAIGWFRQAPGKEREGVSRIRSSDGSTNYADSVKGRFTMSRDNAKNTVYLQMNSLKPEDTAVYYCAYGPLTKYGSSWYWPYEYDYWGQGTQVTVSS
notes: not shown: His6, N-terminal, cleaved; SUMO, N-terminal, cleaved
- binding result: binds
